Tests used:
LexAΔ24aa = biological target: T1, LexAΔ24aa (Mycobacterium tuberculosis, UniProt P9WHR7 25-236, del1-24); test: BLI; pH 7.5; BLI: 10 mM HEPES pH 7.5, 50 mM NaCl, 25 C (pH 4 buffer not stated), 1:1 global fit; EMSA: 10 mM HEPES pH 7.5, 50 mM NaCl, 30 min on ice, 3.5 nM DNA; settings: protein: recombinant; tags: N-term 6xHis (pET28a); chain copies: 2; label: 5' biotin on strand 1; blunt
T1 sequence: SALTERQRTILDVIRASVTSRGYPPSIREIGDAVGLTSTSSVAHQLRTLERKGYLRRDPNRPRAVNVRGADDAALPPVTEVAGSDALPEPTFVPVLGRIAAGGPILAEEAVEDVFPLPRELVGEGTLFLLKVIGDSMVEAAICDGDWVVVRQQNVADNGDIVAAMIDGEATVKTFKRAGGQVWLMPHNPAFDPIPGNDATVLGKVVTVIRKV

LexA WT = biological target: T2, LexA WT (Mycobacterium tuberculosis, UniProt P9WHR7 1-236); test: BLI; pH 7.5; BLI: 10 mM HEPES pH 7.5, 50 mM NaCl, 25 C (pH 4 buffer not stated), 1:1 global fit; […]; settings: protein: recombinant; tags: N-term 6xHis (pET28a); chain copies: 2; label: 5' biotin on strand 1; blunt
T2 sequence: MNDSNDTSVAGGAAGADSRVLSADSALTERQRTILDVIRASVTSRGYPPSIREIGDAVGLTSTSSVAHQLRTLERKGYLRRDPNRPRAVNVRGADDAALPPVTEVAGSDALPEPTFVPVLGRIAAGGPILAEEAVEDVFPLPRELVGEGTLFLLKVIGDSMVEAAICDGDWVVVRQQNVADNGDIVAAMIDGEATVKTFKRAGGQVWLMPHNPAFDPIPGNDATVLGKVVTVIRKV

LexAΔ18aa [1] = biological target: T3, LexAΔ18aa (Mycobacterium tuberculosis, UniProt P9WHR7 1-236, del94-111); test: EMSA; 128 nM protein; BLI: 10 mM HEPES pH 7.5, 50 mM NaCl, 25 C (pH 4 buffer not stated), 1:1 global fit; EMSA: 10 mM HEPES pH 7.5, 50 mM NaCl, 30 min on ice, 3.5 nM DNA; settings: protein: recombinant; tags: 6xHis; chain copies: 2; label: 32P end label, no biotin; blunt
T3 sequence: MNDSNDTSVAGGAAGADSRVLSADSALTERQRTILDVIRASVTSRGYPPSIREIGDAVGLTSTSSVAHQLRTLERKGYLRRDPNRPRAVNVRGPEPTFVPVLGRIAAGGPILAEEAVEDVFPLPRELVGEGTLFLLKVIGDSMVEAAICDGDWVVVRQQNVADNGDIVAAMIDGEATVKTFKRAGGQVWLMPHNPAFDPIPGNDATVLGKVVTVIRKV

LexAΔ18aa [2] = biological target: T3, LexAΔ18aa; test: BLI; pH 7.5; BLI: 10 mM HEPES pH 7.5, 50 mM NaCl, 25 C (pH 4 buffer not stated), 1:1 global fit; EMSA: 10 mM HEPES pH 7.5, 50 mM NaCl, 30 min on ice, 3.5 nM DNA; settings: protein: recombinant; tags: 6xHis; chain copies: 2; label: 5' biotin on strand 1; blunt

B1: dnaE2_44mer SOS box, biotinylated (dsDNA)
DNA 1: ACAACTGCGCTGTATCGAACAATTGTTCGATATACTGTGGAATG
DNA 2: CATTCCACAGTATATCGAACAATTGTTCGATACAGCGCAGTTGT
- Kd (LexAΔ24aa): 4.94 ± 0.03 nM
- Kd (LexA WT): 2.16 ± 0.01 nM

B2: dnaE2 44mer SOS box, 32P end-labeled (dsDNA)
DNA 1: B1 DNA 1
DNA 2: B1 DNA 2
- binding result (LexAΔ18aa [1]): binds

B3: rv3074_44mer SOS box, biotinylated (dsDNA)
DNA 1: GCAGGCTGCTATTCTCGAACACATGTTCGAGACATTGACCGCGA
DNA 2: TCGCGGTCAATGTCTCGAACATGTGTTCGAGAATAGCAGCCTGC
- Kd (LexAΔ24aa): 2.75 ± 0.04 nM
- Kd (LexAΔ18aa [2]): 43.5 ± 0.24 nM
- Kd (LexA WT): 3.86 ± 0.03 nM

B4: lexA_44mer SOS box, biotinylated (dsDNA)
DNA 1: CCGGAACACGCCTGTCGAACACATGTTTGATTCTTGGTGCGAAT
DNA 2: ATTCGCACCAAGAATCAAACATGTGTTCGACAGGCGTGTTCCGG
- Kd (LexAΔ24aa): 2.36 ± 0.02 nM
- Kd (LexAΔ18aa [2]): 34.53 ± 0.25 nM
- Kd (LexA WT): 0.98 ± 0.01 nM

B5: recA_44mer SOS box, biotinylated (dsDNA)
DNA 1: GTGTCACACTTGAATCGAACAGGTGTTCGGCTACTGTGGTGATC
DNA 2: GATCACCACAGTAGCCGAACACCTGTTCGATTCAAGTGTGACAC
- Kd (LexAΔ24aa): 1.67 ± 0.02 nM
- Kd (LexAΔ18aa [2]): 32.55 ± 0.22 nM
- Kd (LexA WT): 3.63 ± 0.02 nM

Reference: paper PMC8607333, “Real-time kinetic studies of Mycobacterium tuberculosis LexA–DNA interaction” (Bioscience Reports, 2021)
